Legend:
[1] = target: T1, Soluble rat FcRn, GST-tagged, with human beta2-microglobulin (rat; Schistosoma japonicum; human, UniProt P08515 1-218 = GST); experiment: SPR, albumin over immobilized GST-FcRn, pH 6.0, 1:1 model
T1 construct: also called srFcRn
Description: (§1) SPR experiments were carried out using a Biacore 3000 instrument (GE Healthcare). Flow cells of CM5 sensor chips were coupled with soluble FcRn from one of the following species, human (shFcRn), rat (srFcRn), mouse (smFcRn), rhesus monkey (srmFcRn), dog (dFcRn) or pig (pFcRn) (˜900-2500 resonance units (RU)) using GE Healthcare amine coupling chemistry as per the manufacturer's instructions. The coupling was performed by injecting 2 or 10 μg/ml FcRn in 10 mM sodium acetate pH 5.0 (GE healthcare). Phosphate buffer (67 mM phosphate buffer, 0.15 M NaCl, 0.005% Tween 20) at pH 6.0) was used as running buffer and dilution buffer. Regeneration of the surfaces were done using injections of HBS-EP buffer (0.01 M HEPES, 0.15 M NaCl, 3 mM EDTA, 0.005% surfactant P20) at pH 7.4 (GE Healthcare). For determination of binding kinetics, serial dilutions of albumin (10-0.3 μM) were injected over immobilized receptors at a constant flow rate (50 μl/min) at 25° C. In all experiments, data were zero adjusted and the reference cell subtracted.

[2] = target: T2, Soluble mouse FcRn, GST-tagged, with human beta2-microglobulin (mouse; Schistosoma japonicum; human, UniProt P08515 1-218 = GST); experiment: as above
T2 construct: also called smFcRn
Description: as §1

[3] = target: T3, Soluble rhesus monkey FcRn, GST-tagged, with human beta2-microglobulin (rhesus monkey; Schistosoma japonicum; …, UniProt P08515 1-218 = GST); experiment: as above
T3 construct: also called srmFcRn; soluble rhesus macaque FcRn
Description: as §1

[4] = target: T4, Soluble dog FcRn, GST-tagged, with human beta2-microglobulin (dog; Schistosoma japonicum; human, UniProt P08515 1-218 = GST); experiment: as above
T4 construct: also called dFcRn
Description: as §1

[5] = target: T5, Soluble pig FcRn, GST-tagged, with human beta2-microglobulin (Example 2) (pig; Schistosoma japonicum; human, UniProt P08515 1-218 = GST); experiment: as above
T5 construct: also called pFcRn; spFcRn
Description: as §1

[6] = target: T1, Soluble rat FcRn, GST-tagged, with …; experiment: SPR, albumin over immobilized GST-FcRn, pH 6.0, steady state
Description: as §1

[7] = target: T2, Soluble mouse FcRn, GST-tagged, with …; experiment: as above
Description: as §1

[8] = target: T6, Wild type cynomolgus macaque serum albumin (cynomolgus macaque, UniProt A2V9Z4 24-608); experiment: SPR, albumin over immobilized His-FcRn, pH 5.5, 1:1 Langmuir
T6 construct: also called CSA; native cyno albumin
T6 sequence (A2V9Z4 24-608): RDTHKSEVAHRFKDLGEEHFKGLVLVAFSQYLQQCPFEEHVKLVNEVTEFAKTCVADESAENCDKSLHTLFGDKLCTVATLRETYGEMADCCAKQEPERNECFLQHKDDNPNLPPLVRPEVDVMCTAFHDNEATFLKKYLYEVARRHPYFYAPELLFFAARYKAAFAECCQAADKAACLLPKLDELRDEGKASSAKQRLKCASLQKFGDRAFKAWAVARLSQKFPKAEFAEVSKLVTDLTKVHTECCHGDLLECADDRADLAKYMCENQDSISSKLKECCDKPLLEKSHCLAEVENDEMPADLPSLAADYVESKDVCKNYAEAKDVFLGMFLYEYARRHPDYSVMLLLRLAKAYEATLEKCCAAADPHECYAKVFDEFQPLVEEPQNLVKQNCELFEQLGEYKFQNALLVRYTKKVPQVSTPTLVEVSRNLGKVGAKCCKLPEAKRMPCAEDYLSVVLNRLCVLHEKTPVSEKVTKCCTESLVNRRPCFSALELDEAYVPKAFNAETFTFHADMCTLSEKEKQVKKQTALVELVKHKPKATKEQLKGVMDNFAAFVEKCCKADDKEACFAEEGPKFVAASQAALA
Description: as §1
The SPR assay was conducted with the following variations to the assay described in the Materials and Method section:
The soluble FcRn receptors were synthesized by GeneArt and expressed in HEK cells. The soluble FcRn contained a HIS-tag on the C-terminal of the Beta-chain instead of a GST on the heavy chain and the beta-chain used was the native beta-chain of the animal (see Materials and Method section for the corresponding sequences). The soluble FcRn was purified by a HIS trap column followed by an additional purification using an IgG column. The soluble FcRn receptor was diluted to 20 μg/mL. The phosphate buffer used as running buffer in the SPR assay was at pH 5.5 instead of pH 6.0. […] 1:1 Langmuir or Steady state model was used.

B1: Wild type rat serum albumin (ligand)
chain: EAHKSEIAHRFKDLGEQHFKGLVLIAFSQYLQKCPYEEHIKLVQEVTDFAKTCVADENAENCDKSIHTLFGDKLCAIPKLRDNYGELADCCAKQEPERNECFLQHKDDNPNLPPFQRPEAEAMCTSFQENPTSFLGHYLHEVARRHPYFYAPELLYYAEKYNEVLTQCCTESDKAACLTPKLDAVKEKALVAAVRQRMKCSSMQRFGERAFKAWAVARMSQRFPNAEFAEITKLATDVTKINKECCHGDLLECADDRAELAKYMCENQATISSKLQACCDKPVLQKSQCLAEIEHDNIPADLPSIAADFVEDKEVCKNYAEAKDVFLGTFLYEYSRRHPDYSVSLLLRLAKKYEATLEKCCAEGDPPACYGTVLAEFQPLVEEPKNLVKTNCELYEKLGEYGFQNAVLVRYTQKAPQVSTPTLVEAARNLGRVGTKCCTLPEAQRLPCVEDYLSAILNRLCVLHEKTPVSEKVTKCCSGSLVERRPCFSALTVDETYVPKEFKAETFTFHSDICTLPDKEKQIKKQTALAELVKHKPKATEDQLKTVMGDFAQFVDKCCKAADKDNCFATEGPNLVARSKEALA
notes: also called RSA; RSA Wt
Kd [1]: 3.2 µM | koff [1]: 0.026 s⁻¹ | kon [1]: 7600 M⁻¹ s⁻¹ | Kd [2]: 2.6 µM | koff [2]: 0.0341 s⁻¹ | kon [2]: 13000 M⁻¹ s⁻¹ | Kd [3]: 2.2 µM | koff [3]: 0.0101 s⁻¹ | kon [3]: 4500 M⁻¹ s⁻¹ | Kd [4]: 5.8 µM | koff [4]: 0.048 s⁻¹ | kon [4]: 8300 M⁻¹ s⁻¹ | Kd [5]: 6.4 µM | koff [5]: 0.071 s⁻¹ | kon [5]: 11000 M⁻¹ s⁻¹ | Kd [6]: 4.1 µM | Kd [7]: 2.6 µM

B2: Soluble cynomolgus macaque FcRn with cynomolgus beta2-microglobulin, HIS-tagged (receptor)
chain: AESHLSLLYHLTAVSSPAPGTPAFWVSGWLGPQQYLSYDSLRGQAEPCGAWVWENQVSWYWEKETTDLRIKEKLFLEAFKALGGKGPYTLQGLLGCELSPDNTSVPTAKFALNGEEFMNFDLKQGTWGGDWPEALAISQRWQQQDKAANKELTFLLFSCPHRLREHLERGRGNLEWKEPPSMRLKARPGNPGFSVLTCSAFSFYPPELQLRFLRNGMAAGTGQGDFGPNSDGSFHASSSLTVKSGDEHHYCCIVQHAGLAQPLRVELETPAKSS
b2m: IQRTPKIQVYSRHPPENGKPNFLNCYVSGFHPSDIEVDLLKNGEKMGKVEHSDLSFSKDWSFYLLYYTEFTPNEKDEYACRVNHVTLSGPRTVKWDRDM
notes: Synthesized by GeneArt, expressed in HEK cells; also called CynoFcRn; Cyno FcRn; not shown: HIS-tag on the C-terminal of the beta-chain
Kd [8]: 35 µM
